Consider 1 protein from patent publication US20210386875.

The target of the data set is T1, [^125I]LS370.
T1 chain: XYXDEVDGKGC

B1: Caspase-3 (Cal Biochem) (protein)
chain: SGISLDNSYKMDYPEMGLCIIINNKNFHKSTGMTSRSGTDVDAANLRETFRNLKYEVRNKNDLTREEIVELMRDVSKEDHSKRSSFVCVLLSHGEEGIIFGTNGPVDLKKITNFFRGDRCRSLTGKPKLFIIQACRGTELDCGIETDSGVDDDMACHKIPVEADFLYAYSTAPGYYSWRNSKDGSWFIQSLCAMLKQYADKLEFMHILTRVNRKVATEFESFSFDATFHAKKQIPCIVSMLTKELYFYH
As for B1, the “hydrolysis by caspase-3 (radiochromatogram)” value is “[^125I]LS370 eluted at 19.5 min, and in the presence of caspase-3, the cleaved fragments eluted at 12.5 and 13 min”; the kcat (kinetic analysis of hydrolysis, radio-HPLC) turned out to be 1.02 s⁻¹.
